Experimental findings from US20110124556 (published 2011) are described below.

What is called Kd is the constant that tells how readily two partners part at equilibrium.

First the molecules themselves.
B1: S443 (peptide)
chain 1: ESFYDWFERQLGGGGK
chain 2: WVQCEVYGRGCPS
B2: S527 (peptide)
chain 1: H[Ac6c]CAQE[dW]GSEL
chain 2: [Tic]QCSGSESFYDWFERQL
modifications: not fully specified; printed as H-Acy-CAQEwGSEL-Tic-QCSGSESFYDWFERQL; ends and bridges not checked
B3: S301 (peptide)
chain 1: XDWLQRNANFYDWFVAEL
chain 2: XDWLQRNANFYDWFVAEL
modifications: listing feature
B4: S442 (peptide)
chain 1: ESFYDWFERQLGGGGK
chain 2: AWVQCEVYGRGCPS
B5: S453 (peptide)
chain: GSLDESFYDWFERQLGKKKXXKEWLDQEWAWVQCEVYGRGCPSEE
modifications: not fully specified (residues 19, 20, 21); printed as GSLDESFYDWFERQLGKKK-Ald-17-Ald-KEWLDQEWAWVQCEVYGRGCPSEE; cysteine pairing not given here; also: two peptides (1-19 and 22-45) joined by linker 17 between the Ald group on K19 and an N-terminal Ald on the second peptide
B6: S454 (peptide)
chain 1: GSLDESFYDWFERQLGKKKX
chain 2: EWLDQEWAWVQCEVYGRGCPSEEKX
modifications: not fully specified; listing feature
B7: S580 (peptide)
chain 1: SLEEEWAQVECEVYGRGC-βturn
chain 2: ESFYDWFERQLG
modifications: not fully specified (bridges); printed as SLEEEWAQVECEVYGRGC-βturn-ESFYDWFERQLG; ends and bridges not checked; also: chain 1 continues via βturn into chain 2 (C-N fusion)
B8: S229 (peptide)
chain 1: SDGFYNAIELLSX
chain 2: KHLCVLEELFWGASLFGYCSGKKX
modifications: not fully specified; listing feature
B9: S439 (peptide)
chain 1: ESFYDWFERQLGGGGK
chain 2: QEWAWVQCEVYGRGCPS
B10: S438 (peptide)
chain 1: ESFYDWFERQLGGGGK
chain 2: DQEWAWVQCEVYGRGCPS
B11: S218 (peptide)
chain 1: AFYDWFAKKX
chain 2: AFYDWFAKKX
modifications: listing feature
B12: S231 (peptide)
chain 1: FHENFYDWFVRQVSKKGGGX
chain 2: FHENFYDWFVRQVSKKGGGX
modifications: listing feature
B13: S456 (peptide)
chain 1: GSLDESFYDWFERQLGKK
chain 2: XKEWLDQEWAWVQCEVYGRGCPSEE
modifications: not fully specified; listing feature
B14: S379 (peptide)
chain 1: GSLDESFYDWFERQLGKKKX
chain 2: GSLDESFYDWFERQLGKKKX
modifications: not fully specified; listing feature
B15: S360 (peptide)
chain 1: XDWLQRNANFYDWFVAEL
chain 2: XDWLQRNANFYDWFVAEL
modifications: listing feature

Non-standard residues stand in square brackets, D forms with d. No end group written: not given here. Tic = O=C(O)[C@@H]1Cc2ccccc2CN1; Ac6c = NC1(C(=O)O)CCCCC1; βturn = not defined here

The target in this experiment is human insulin receptor (HIR) (human, UniProt P06213). In words: competition.
In turn, B1 showed an equilibrium dissociation constant (Kd) of 170 nM. The molecule HHHHHHKSLEEEWAQVECEVYGRGCPSGSLDESFYDWFERQLG [S524] returned a Kd of 0.011 nM. The same measure for LEEEWAQIQREVWHSPASESFYDWFERQL [S595]: 0.62 nM; for EGWDFYSYFSGLLASVT [S259]: 7700 nM; for B2: 2.4 nM.

Molecule B3 returned a Kd of 640 nM. Take GSLDESFYDWFERQLGKKKS [S373]: the affinity, expressed as Kd, was 120 nM. Turning to AHENFYDWFVRQVSKK [S113], the affinity, expressed as Kd, was 590 nM.

Consider SLEHEWAQVECEVYGRGCPSGSLDESFYDWFERQLG [S537], for which the Kd came out at 0.044 nM. The same measure for SLELEWAQVECEVYGRGCPSGSLDESFYDWFERQLG [S539 (printed S519)]: 0.098 nM; for SLEEEWAQVECEVYGRGCPSGSLDESFYHWFERQLG [S542]: 0.027 nM; for SLEEEWAQVECEVWGRGCPSGSLDESFYDWFERQLG [S541]: 0.0078 nM. The same measure for FHENFYDWFVRAVSKK [S107]: 1000 nM; for AFYDWFAKK [S167]: over 2000 nM.

Molecule WFYDWFWE [S315] came in with a Kd of 68 nM. As for B4, the Kd is 160 nM. As to NFYDWFVAELG [S243], the Kd stood at 2000 nM.

B5 showed a Kd of 0.57 nM. On to B6, for which the Kd stood at 0.38 nM. Molecule SLEEEWAQIECEVWGRGCPSGSLDESFYDWFERQL [S560] came in with a Kd of 0.014 nM.

Consider SLEEEWAQIEEVWGRGPSESFYDWFERQLG [S569], for which the Kd is 0.15 nM. SLEEEWAQVECEVYGRGCPSFYDWFERQL [S531] displayed a Kd of 0.075 nM. In the case of HPTSKEIYAKLLK [S122] it was 93 nM; in that of SIEEEWAQIKCDVWGRCSESFYDWFERQL [S562], 0.018 nM. Consider SLEEEWAQIEAEVWGRGAPSESFYDWFERQLG [S574], for which the affinity, expressed as Kd, was 0.0092 nM. In the case of B7, the Kd turned out to be 0.012 nM.

In turn, EHWNTVDPFYFTLFEWLRESG [S177] gave a Kd of 27000 nM.

In the case of SLEEEWAWVQCEVYGRGCPSESFYDWFERQL [S534], the Kd turned out to be 0.01 nM. As to SLEEEWAQVECEVYGRGCPSESFYDWFERQL [S530], the Kd turned out to be 0.008 nM. Consider SLEEEWAQIECEVYGRGCPSESFYDWFERQL (not fully specified (N-terminus); ends and bridges not checked) [S557], for which the dissociation constant (Kd) stood at 0.02 nM.

B8: binding was put at a Kd of 4.4 nM.

In the case of SLEEEWAQIQCEVWGRCSESFYDWFERQL [S564], the Kd was determined as 0.013 nM.

In the case of FYDWFERQLG [S392], the affinity, expressed as Kd, was 38 nM.

In the case of SLEEEWAQVECEVYGRGCSGSLDESFYDWFERQLG [S549], the Kd is 0.013 nM.

As to WLEQERAWIWCEIQGSGCRA [S263 (D8B12)], the Kd was over 20000 nM. The molecule B9 registered a Kd of 46 nM. Take Ac-SLEEEWAQIECEVYGRGCPSESFYDWFERQL (ends and bridges not checked) [S597]: the Kd came out at 0.0085 nM.

The molecule DPFYQGLWEWLRESGEE [S289] came in with a dissociation constant Kd of over 2000 nM. The same measure for B10: 30 nM; for SLEEEWAQIQHELYGPAESESFYDWFERQL [S596]: 0.045 nM. The molecule SIEEEWAQIKCDVWGRGCPSY [S593] showed a Kd of 2.2 nM. Molecule SDGFYNAIELLS [S118] showed a Kd of 24000 nM. In the case of SLEEEWAQVECEVWGRGCPS [S548] it was 4.1 nM; in that of SLEEEWAQIEEVWGRGSESFYDWFERQLG [S571], 1.8 nM; in that of NSFYEALRMLSSK [S121], 31 nM. In the case of FHENFYDWFVRQVSKKXXSDGFYNAIELLS (not fully specified; listing feature) [S273] it was 15 nM; in that of GIISQSCPESFYDWFAGQVSDPWWCW [S326 (G33)], 590 nM; in that of B11, 11000 nM.

For the molecule B12, the Kd was 270 nM. In the case of B13 it was 2.4 nM; in that of RGTRSDPFYHKLSELLQGH [S368], over 20000 nM; in that of FHENFADWFVRQVSKK [S220], over 2000 nM. Consider SLEEEWAQIEEVWGRPSESFYDWFERQLG [S570], for which the affinity, expressed as Kd, was 0.73 nM. In the case of B14 it was 56 nM; in that of B15, 990 nM.
